According to PMC9388512 (Nature Communications, 2022):
FAM = carboxyfluorescein label

B1: FAM labelled eIF4G1 peptide (Ac-KKRYSRDFLLALQK-(FAM)-NH2) (peptide)
peptide: Ac-KKRYSRDFLLALQK(FAM)-NH2
notes: also called labelled peptide; tracer peptide; source: synthetic peptide; bought: Mimotopes
B2: 4E-BP1^4ALA, purified (natural protein, UniProt Q13541 1-118, looked up)
chain: MSGGSSCSQTPSRAIPATRRVVLGDGVQLPPGDYSTAPGGTLFSTAPGGTRIIYDRKFLMECRNAPVTKAPPRDLPTIPGVTSPSSDEPPMEASQSHLRNSPEDKRAGGEESQFEMDI

Key:
[1] = molecular target: T1, eIF4E, purified recombinant human full-length (human, UniProt P06730 1-217); assay: fluorescence polarisation; competition: eIF4E 200 nM, FAM-labelled eIF4G1 peptide 50 nM, VH domains titrated; PBS pH 7.4, 0.1% Tween 20; conditions: both partners purified
T1 construct: eIF4E, human, full-length clone in pET11d; m7GTP was present at immobilisation and in the crystals; also called pure eIF4E; eukaryotic translation initiation factor 4E

[2] = molecular target: T1, eIF4E, purified recombinant human …; assay: SPR; 4E-BP1^4ALA over eIF4E amine-coupled to a CM5 chip; single or multi cycle not told; fitted with a 1:1 model (poor fit) and then with a 2-state model; n = 3; conditions: both partners purified

T1 sequence (P06730 whole entry, the tested form may be a part): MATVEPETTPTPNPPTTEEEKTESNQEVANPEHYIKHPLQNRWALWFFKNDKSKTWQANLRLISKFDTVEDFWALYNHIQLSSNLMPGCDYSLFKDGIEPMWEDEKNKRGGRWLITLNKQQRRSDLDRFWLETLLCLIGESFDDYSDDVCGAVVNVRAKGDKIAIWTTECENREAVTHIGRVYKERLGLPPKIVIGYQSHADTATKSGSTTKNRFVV

Row | Binder | binding result [1] | Kd [2] [nM]
1 | B1 | binds | –
2 | B2 | – | 0.68
